Among the data in US20230365709A1 (published 2023) are binding result and Kd values, retold here.

Test [1] addresses T1, recombinant human CD64 expressed on the surface of CHO cells (human, UniProt P12314 16-374).
T1 construct: whole, on cells; also called huCD64
The test is described as follows: flow cytometry, receptor-expressing CHO cells. The procedure: (§1) The CHO cells were incubated with serial dilutions of the indicated trispecific constructs and control constructs at 37° C., and cell surface bound antibodies were detected by FITC-conjugated goat anti-human IgG Fc and flow cytometric analysis. Measured median fluorescence intensity values were used to calculate apparent affinities (KD) by non-linear regression.

Test [2] addresses T1, recombinant human CD64 expressed on the …. The test can be described thus: flow cytometry, CHO-huCD64 cells, apparent KD; SD 13.7. The procedure:
as §1

In test [3] the target is T2, recombinant human CD32A expressed on the surface of CHO cells (human, UniProt P12318 34-317).
T2 construct: whole, on cells; also called huCD32A
T2 sequence (looked up): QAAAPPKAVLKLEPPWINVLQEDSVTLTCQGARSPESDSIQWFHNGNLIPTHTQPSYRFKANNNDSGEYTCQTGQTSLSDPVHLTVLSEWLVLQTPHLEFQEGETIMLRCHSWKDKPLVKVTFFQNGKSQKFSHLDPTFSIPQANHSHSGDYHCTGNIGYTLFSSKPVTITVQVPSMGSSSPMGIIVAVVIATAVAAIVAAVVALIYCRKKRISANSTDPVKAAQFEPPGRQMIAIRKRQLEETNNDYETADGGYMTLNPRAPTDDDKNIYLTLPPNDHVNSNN
The test can be described thus: flow cytometry, CHO-huCD32A cells, apparent KD; SD 719.6. The procedure:
as §1

The target of test [4] is T2, recombinant human CD32A expressed on …. The test can be described thus: flow cytometry, CHO-huCD32A cells, apparent KD; SD n.a. The procedure:
as §1

T1 sequence (P12314 16-374): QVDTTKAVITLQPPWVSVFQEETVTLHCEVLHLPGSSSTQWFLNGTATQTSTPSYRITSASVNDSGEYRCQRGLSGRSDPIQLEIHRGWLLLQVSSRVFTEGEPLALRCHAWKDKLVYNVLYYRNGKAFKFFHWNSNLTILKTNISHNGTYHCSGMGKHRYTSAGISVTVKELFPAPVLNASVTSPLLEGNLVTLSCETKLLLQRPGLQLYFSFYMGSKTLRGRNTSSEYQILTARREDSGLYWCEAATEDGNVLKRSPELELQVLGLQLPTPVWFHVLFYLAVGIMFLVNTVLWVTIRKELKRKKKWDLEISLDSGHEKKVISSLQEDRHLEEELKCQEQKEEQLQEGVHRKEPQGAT

B1: 2Fab-1scFv-AFc-1 (bispecific antibody, human IgG1, kappa)
heavy: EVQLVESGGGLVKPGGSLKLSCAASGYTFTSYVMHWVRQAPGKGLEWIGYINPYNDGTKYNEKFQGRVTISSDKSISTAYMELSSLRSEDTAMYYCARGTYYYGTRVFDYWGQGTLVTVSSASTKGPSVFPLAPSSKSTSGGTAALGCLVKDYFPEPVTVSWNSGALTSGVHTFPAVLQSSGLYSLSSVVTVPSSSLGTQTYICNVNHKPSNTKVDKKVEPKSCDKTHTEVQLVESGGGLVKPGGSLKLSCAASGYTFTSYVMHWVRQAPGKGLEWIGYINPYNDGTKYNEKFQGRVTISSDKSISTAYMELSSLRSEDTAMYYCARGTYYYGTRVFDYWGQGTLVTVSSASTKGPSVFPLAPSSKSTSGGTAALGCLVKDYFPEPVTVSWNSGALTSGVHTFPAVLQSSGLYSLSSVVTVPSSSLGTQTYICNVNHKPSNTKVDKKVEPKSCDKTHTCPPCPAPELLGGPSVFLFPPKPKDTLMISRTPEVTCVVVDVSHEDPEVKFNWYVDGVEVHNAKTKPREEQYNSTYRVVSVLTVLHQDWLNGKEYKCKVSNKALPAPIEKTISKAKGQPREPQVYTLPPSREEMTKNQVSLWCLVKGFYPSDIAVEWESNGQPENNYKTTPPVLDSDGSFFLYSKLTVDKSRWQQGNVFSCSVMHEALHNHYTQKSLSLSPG
light: DIVMTQSPATLSLSPGERATLSCRSSKSLQNVNGNTYLYWFQQKPGQSPQLLIYRMSNLNSGVPDRFSGSGSGTEFTLTISSLEPEDFAVYYCMQHLEYPITFGAGTKLEIKRTVAAPSVFIFPPSDEQLKSGTASVVCLLNNFYPREAKVQWKVDNALQSGNSQESVTEQDSKDSTYSLSSTLTLSKADYEKHKVYACEVTHQGLSSPVTKSFNRGEC
chain: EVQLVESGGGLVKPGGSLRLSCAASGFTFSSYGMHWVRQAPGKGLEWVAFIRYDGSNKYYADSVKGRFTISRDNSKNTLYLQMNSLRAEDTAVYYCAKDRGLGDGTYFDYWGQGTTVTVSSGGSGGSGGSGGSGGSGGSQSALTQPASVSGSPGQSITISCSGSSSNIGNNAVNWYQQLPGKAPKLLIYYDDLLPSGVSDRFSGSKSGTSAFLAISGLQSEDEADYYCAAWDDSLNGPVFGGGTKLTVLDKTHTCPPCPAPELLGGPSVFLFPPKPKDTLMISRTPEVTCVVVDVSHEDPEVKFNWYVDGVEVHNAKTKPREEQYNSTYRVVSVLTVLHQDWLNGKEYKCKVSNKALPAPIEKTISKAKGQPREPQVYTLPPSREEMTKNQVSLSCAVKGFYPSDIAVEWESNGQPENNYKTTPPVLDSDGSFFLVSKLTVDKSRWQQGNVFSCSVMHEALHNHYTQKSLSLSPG
notes: CD19, wt Fc, NKG2D(KYK-2.0)
Consider B1, for which the binding result in test [1] is “binds”.

B2: 2Fab-1scFv-AFc-4 (bispecific antibody, human IgG1, kappa)
heavy: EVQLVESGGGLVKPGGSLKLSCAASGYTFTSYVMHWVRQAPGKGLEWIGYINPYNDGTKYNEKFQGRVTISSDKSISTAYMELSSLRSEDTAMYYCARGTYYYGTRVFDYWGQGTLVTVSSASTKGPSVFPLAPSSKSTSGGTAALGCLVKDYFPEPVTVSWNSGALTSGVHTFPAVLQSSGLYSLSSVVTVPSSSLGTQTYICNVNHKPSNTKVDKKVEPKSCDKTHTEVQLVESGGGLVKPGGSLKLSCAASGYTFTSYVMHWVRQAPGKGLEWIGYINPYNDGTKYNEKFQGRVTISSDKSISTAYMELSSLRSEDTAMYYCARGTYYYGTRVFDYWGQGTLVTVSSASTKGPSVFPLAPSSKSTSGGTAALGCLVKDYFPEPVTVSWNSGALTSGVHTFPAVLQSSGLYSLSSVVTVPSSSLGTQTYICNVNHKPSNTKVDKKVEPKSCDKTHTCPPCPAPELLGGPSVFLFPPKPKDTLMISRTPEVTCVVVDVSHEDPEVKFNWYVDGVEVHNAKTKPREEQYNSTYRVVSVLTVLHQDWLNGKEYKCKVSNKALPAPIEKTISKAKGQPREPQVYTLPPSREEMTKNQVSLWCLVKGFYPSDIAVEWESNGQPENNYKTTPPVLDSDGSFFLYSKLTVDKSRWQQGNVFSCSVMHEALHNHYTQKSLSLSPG
light: B1 light
chain: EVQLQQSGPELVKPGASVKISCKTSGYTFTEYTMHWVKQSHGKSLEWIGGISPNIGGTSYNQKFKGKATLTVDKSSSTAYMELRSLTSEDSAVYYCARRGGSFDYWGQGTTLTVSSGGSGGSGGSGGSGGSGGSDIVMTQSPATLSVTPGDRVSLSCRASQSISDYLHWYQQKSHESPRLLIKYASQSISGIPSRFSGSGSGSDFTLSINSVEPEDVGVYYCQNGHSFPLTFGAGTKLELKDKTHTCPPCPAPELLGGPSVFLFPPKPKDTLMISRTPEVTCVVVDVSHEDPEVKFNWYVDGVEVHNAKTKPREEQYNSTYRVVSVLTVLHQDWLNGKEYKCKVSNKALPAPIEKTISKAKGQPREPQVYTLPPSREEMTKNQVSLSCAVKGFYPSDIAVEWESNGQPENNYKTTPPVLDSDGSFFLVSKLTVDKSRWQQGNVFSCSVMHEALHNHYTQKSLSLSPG
notes: CD19, wt Fc, NKp46(NKp46-3)
Turning to B2, the binding result in test [1] was “binds”.

B3: 2Fab-1scFv-AFc-3 (bispecific antibody, human IgG1, kappa)
heavy: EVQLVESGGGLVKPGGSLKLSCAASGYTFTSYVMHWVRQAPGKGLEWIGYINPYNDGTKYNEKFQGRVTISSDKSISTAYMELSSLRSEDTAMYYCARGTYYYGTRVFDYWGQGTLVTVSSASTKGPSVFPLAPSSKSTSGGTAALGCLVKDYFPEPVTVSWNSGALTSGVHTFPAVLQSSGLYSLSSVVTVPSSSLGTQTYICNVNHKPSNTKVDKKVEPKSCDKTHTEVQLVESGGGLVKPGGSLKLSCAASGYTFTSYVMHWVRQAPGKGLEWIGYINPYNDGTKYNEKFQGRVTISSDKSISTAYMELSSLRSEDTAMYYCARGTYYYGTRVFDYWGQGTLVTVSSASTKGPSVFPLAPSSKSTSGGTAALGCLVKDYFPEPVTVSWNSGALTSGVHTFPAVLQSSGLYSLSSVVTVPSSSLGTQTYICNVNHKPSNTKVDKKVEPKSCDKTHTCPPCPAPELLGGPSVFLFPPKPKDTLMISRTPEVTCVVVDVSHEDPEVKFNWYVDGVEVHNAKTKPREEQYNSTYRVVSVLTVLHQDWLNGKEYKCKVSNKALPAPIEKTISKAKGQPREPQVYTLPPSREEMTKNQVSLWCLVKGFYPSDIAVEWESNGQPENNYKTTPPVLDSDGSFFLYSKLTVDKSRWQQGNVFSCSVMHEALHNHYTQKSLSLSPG
light: B1 light
chain: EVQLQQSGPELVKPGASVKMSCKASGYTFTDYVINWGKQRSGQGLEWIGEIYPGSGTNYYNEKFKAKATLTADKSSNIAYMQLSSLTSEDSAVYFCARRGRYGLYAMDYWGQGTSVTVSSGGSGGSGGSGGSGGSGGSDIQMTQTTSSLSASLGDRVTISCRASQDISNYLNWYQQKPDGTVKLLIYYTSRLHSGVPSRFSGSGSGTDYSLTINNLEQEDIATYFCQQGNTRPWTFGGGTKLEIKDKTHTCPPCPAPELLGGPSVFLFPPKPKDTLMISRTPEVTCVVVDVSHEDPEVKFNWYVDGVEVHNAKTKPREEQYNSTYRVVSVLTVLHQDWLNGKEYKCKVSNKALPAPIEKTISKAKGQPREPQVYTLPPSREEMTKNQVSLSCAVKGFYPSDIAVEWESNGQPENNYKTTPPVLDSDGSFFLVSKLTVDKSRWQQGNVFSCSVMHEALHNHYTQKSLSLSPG
notes: CD19, wt Fc, NKp46(NKp46-1)
For B3, the Kd stood at 38.1 nM in test [2] and 682 nM in test [3].

B4: IG-scDb-1 (other)
heavy: EVQLVESGGGLVKPGGSLKLSCAASGYTFTSYVMHWVRQAPGKGLEWIGYINPYNDGTKYNEKFQGRVTISSDKSISTAYMELSSLRSEDTAMYYCARGTYYYGTRVFDYWGQGTLVTVSSASTKGPSVFPLAPSSKSTSGGTAALGCLVKDYFPEPVTVSWNSGALTSGVHTFPAVLQSSGLYSLSSVVTVPSSSLGTQTYICNVNHKPSNTKVDKKVEPKSCDKTHTCPPCPAPEFEGGPSVFLFPPKPKDTLMISRTPEVTCVVVAVSHEDPEVKFNWYVDGVEVHNAKTKPREEQYGSTYRVVSVLTVLHQDWLNGKEYKCKVSNKALPAPIEKTISKAKGQPREPQVYTLPPSREEMTKNQVSLTCLVKGFYPSDIAVEWESNGQPENNYKTTPPVLDSDGSFFLYSKLTVDKSRWQQGNVFSCSVMHEALHNHYTQKSLSLSPGGGGGSGGGGSSYELTQPLSVSVALGQTARITCGGHNIGSKNVHWYQQKPGQAPVLVIYQDNKRPSGIPERFSGSNSGNTATLTISRAQAGDEADYYCQVWDNYNVLFGCGTKLTVLGGSGGSQVQLVESGGGLVKPGGSLRLSCAASGFTFSSYGMHWVRQAPGKGLEWVAFIRYDGSNKYYADSVKGRFTISRDNSKNTLYLQMNSLRAEDTAVYYCAKDRGLGDGTYFDYWGQGTTVTVSSGGSGGSGGSGGSGGSGGSQSALTQPASVSGSPGQSITISCSGSSSNIGNNAVNWYQQLPGKAPKLLIYYDDLLPSGVSDRFSGSKSGTSAFLAISGLQSEDEADYYCAAWDDSLNGPVFGGGTKLTVLGGSGGSQVQLVQSGAEVKKPGASVKVSCKASGYTFTSYYMHWVRQAPGQCLEWMGAIEPTYGSTSYAQKFQGRVTMTRDTSTSTVYMELSSLRSEDTAVYYCARGSAYYYDFADYWGQGTLVTVSS
light: B1 light
notes: trispecific construct: target CD19, effector domains CD16A(P2C47var50) and NKG2D(KYK-2.0)
As for B4, the Kd in test [4] was 4090 nM.

B5: 2Fab-1scFv-AFc-2 (bispecific antibody, human IgG1, kappa)
heavy: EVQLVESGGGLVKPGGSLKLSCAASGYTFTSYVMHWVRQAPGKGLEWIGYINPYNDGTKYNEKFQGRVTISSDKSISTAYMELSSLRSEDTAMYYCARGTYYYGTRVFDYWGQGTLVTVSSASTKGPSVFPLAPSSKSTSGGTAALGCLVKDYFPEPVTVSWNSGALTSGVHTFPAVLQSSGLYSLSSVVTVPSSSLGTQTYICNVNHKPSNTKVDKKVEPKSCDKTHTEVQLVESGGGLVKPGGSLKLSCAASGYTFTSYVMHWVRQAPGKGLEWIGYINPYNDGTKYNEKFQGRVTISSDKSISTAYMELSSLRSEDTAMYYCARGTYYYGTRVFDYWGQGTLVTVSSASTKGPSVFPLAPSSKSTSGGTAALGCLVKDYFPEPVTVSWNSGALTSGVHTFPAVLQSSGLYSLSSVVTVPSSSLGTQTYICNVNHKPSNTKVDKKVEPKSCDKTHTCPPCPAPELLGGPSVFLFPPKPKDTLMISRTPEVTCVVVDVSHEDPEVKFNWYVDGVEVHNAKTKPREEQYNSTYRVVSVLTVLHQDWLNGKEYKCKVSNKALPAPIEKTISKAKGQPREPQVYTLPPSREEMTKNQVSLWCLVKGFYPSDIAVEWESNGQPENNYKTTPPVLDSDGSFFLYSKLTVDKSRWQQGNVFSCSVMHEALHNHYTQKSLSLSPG
light: B1 light
chain: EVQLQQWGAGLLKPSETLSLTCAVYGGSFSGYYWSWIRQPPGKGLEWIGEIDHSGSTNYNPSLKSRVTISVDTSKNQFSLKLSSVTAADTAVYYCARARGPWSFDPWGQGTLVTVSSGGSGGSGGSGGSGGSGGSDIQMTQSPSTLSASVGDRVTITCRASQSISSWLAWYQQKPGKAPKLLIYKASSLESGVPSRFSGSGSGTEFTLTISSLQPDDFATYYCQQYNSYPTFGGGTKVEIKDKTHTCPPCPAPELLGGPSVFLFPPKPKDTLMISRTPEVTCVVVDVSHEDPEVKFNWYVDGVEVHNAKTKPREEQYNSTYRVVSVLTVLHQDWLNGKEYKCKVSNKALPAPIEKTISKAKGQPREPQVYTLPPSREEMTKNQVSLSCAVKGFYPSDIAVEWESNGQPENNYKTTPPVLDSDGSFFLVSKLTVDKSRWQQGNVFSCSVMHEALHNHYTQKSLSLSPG
notes: CD19, wt Fc, NKG2D(ADI-27743)
For the molecule B5, the binding result in test [1] is listed as “binds”.
